Data on 15 molecules can be found in patent publication US20210388087A1 (Chugai, published 2021).

Sequences and labels used below:
B1: GLS3000 S56N (antibody, name in Kabat numbering, V domains shown)
VH: QVQLVESGGGVVQPGRSLRLSCAASGFTFSNAWMHWVRQAPGKGLEWVAQIKAKSNNYATYYAESVKGRFTISRDDSKNSLYLQMNSLKTEDTAVYYCRYVHYGAYYGVDAWGQGTTVTVSS
VL: DIVMTQSPLSLPVTPGEPASISCRSSQSLVHSNRNTYLHWYQQKPGQAPRLLIYKVSNRFNGVPDRFSGSGSGTDFTLKISRVEAEDVGVYYCGQGTQVPYTFGQGTKLEIK
notes: one-arm IgG as m2
B2: GLS3000 T31E (antibody, name in Kabat numbering, V domains shown)
VH: QVQLVESGGGVVQPGRSLRLSCAASGFTFSNAWMHWVRQAPGKGLEWVAQIKAKSNNYATYYAESVKGRFTISRDDSKNSLYLQMNSLKTEDTAVYYCRYVHYGAYYGVDAWGQGTTVTVSS
VL: DIVMTQSPLSLPVTPGEPASISCRSSQSLVHSNRNEYLHWYQQKPGQAPRLLIYKVSNRFSGVPDRFSGSGSGTDFTLKISRVEAEDVGVYYCGQGTQVPYTFGQGTKLEIK
notes: one-arm IgG as m2
B3: GLS3000 S56Q (antibody, name in Kabat numbering, V domains shown)
VH: QVQLVESGGGVVQPGRSLRLSCAASGFTFSNAWMHWVRQAPGKGLEWVAQIKAKSNNYATYYAESVKGRFTISRDDSKNSLYLQMNSLKTEDTAVYYCRYVHYGAYYGVDAWGQGTTVTVSS
VL: DIVMTQSPLSLPVTPGEPASISCRSSQSLVHSNRNTYLHWYQQKPGQAPRLLIYKVSNRFQGVPDRFSGSGSGTDFTLKISRVEAEDVGVYYCGQGTQVPYTFGQGTKLEIK
notes: one-arm IgG as m2
B4: GLS3000 S56T (antibody, name in Kabat numbering, V domains shown)
VH: QVQLVESGGGVVQPGRSLRLSCAASGFTFSNAWMHWVRQAPGKGLEWVAQIKAKSNNYATYYAESVKGRFTISRDDSKNSLYLQMNSLKTEDTAVYYCRYVHYGAYYGVDAWGQGTTVTVSS
VL: DIVMTQSPLSLPVTPGEPASISCRSSQSLVHSNRNTYLHWYQQKPGQAPRLLIYKVSNRFTGVPDRFSGSGSGTDFTLKISRVEAEDVGVYYCGQGTQVPYTFGQGTKLEIK
notes: one-arm IgG as m2
B5: GLS3000 T31P (antibody, name in Kabat numbering, V domains shown)
VH: QVQLVESGGGVVQPGRSLRLSCAASGFTFSNAWMHWVRQAPGKGLEWVAQIKAKSNNYATYYAESVKGRFTISRDDSKNSLYLQMNSLKTEDTAVYYCRYVHYGAYYGVDAWGQGTTVTVSS
VL: DIVMTQSPLSLPVTPGEPASISCRSSQSLVHSNRNPYLHWYQQKPGQAPRLLIYKVSNRFSGVPDRFSGSGSGTDFTLKISRVEAEDVGVYYCGQGTQVPYTFGQGTKLEIK
notes: one-arm IgG as m2
B6: GLS3000 T31N (antibody, name in Kabat numbering, V domains shown)
VH: QVQLVESGGGVVQPGRSLRLSCAASGFTFSNAWMHWVRQAPGKGLEWVAQIKAKSNNYATYYAESVKGRFTISRDDSKNSLYLQMNSLKTEDTAVYYCRYVHYGAYYGVDAWGQGTTVTVSS
VL: DIVMTQSPLSLPVTPGEPASISCRSSQSLVHSNRNNYLHWYQQKPGQAPRLLIYKVSNRFSGVPDRFSGSGSGTDFTLKISRVEAEDVGVYYCGQGTQVPYTFGQGTKLEIK
notes: one-arm IgG as m2
B7: GLS3000 T92A (antibody, name in Kabat numbering, V domains shown)
VH: QVQLVESGGGVVQPGRSLRLSCAASGFTFSNAWMHWVRQAPGKGLEWVAQIKAKSNNYATYYAESVKGRFTISRDDSKNSLYLQMNSLKTEDTAVYYCRYVHYGAYYGVDAWGQGTTVTVSS
VL: DIVMTQSPLSLPVTPGEPASISCRSSQSLVHSNRNTYLHWYQQKPGQAPRLLIYKVSNRFSGVPDRFSGSGSGTDFTLKISRVEAEDVGVYYCGQGAQVPYTFGQGTKLEIK
notes: one-arm IgG as m2
B8: GLS3000 S56R (antibody, name in Kabat numbering, V domains shown)
VH: QVQLVESGGGVVQPGRSLRLSCAASGFTFSNAWMHWVRQAPGKGLEWVAQIKAKSNNYATYYAESVKGRFTISRDDSKNSLYLQMNSLKTEDTAVYYCRYVHYGAYYGVDAWGQGTTVTVSS
VL: DIVMTQSPLSLPVTPGEPASISCRSSQSLVHSNRNTYLHWYQQKPGQAPRLLIYKVSNRFRGVPDRFSGSGSGTDFTLKISRVEAEDVGVYYCGQGTQVPYTFGQGTKLEIK
notes: one-arm IgG as m2
B9: GLS3000 S56P (antibody, name in Kabat numbering, V domains shown)
VH: QVQLVESGGGVVQPGRSLRLSCAASGFTFSNAWMHWVRQAPGKGLEWVAQIKAKSNNYATYYAESVKGRFTISRDDSKNSLYLQMNSLKTEDTAVYYCRYVHYGAYYGVDAWGQGTTVTVSS
VL: DIVMTQSPLSLPVTPGEPASISCRSSQSLVHSNRNTYLHWYQQKPGQAPRLLIYKVSNRFPGVPDRFSGSGSGTDFTLKISRVEAEDVGVYYCGQGTQVPYTFGQGTKLEIK
notes: one-arm IgG as m2
B10: GLS3000 T31D (antibody, name in Kabat numbering, V domains shown)
VH: QVQLVESGGGVVQPGRSLRLSCAASGFTFSNAWMHWVRQAPGKGLEWVAQIKAKSNNYATYYAESVKGRFTISRDDSKNSLYLQMNSLKTEDTAVYYCRYVHYGAYYGVDAWGQGTTVTVSS
VL: DIVMTQSPLSLPVTPGEPASISCRSSQSLVHSNRNDYLHWYQQKPGQAPRLLIYKVSNRFSGVPDRFSGSGSGTDFTLKISRVEAEDVGVYYCGQGTQVPYTFGQGTKLEIK
notes: one-arm IgG as m2
B11: GLS3000 T31K (antibody, name in Kabat numbering, V domains shown)
VH: QVQLVESGGGVVQPGRSLRLSCAASGFTFSNAWMHWVRQAPGKGLEWVAQIKAKSNNYATYYAESVKGRFTISRDDSKNSLYLQMNSLKTEDTAVYYCRYVHYGAYYGVDAWGQGTTVTVSS
VL: DIVMTQSPLSLPVTPGEPASISCRSSQSLVHSNRNKYLHWYQQKPGQAPRLLIYKVSNRFSGVPDRFSGSGSGTDFTLKISRVEAEDVGVYYCGQGTQVPYTFGQGTKLEIK
notes: one-arm IgG as m2
B12: GLS3000 S56Y (antibody, name in Kabat numbering, V domains shown)
VH: QVQLVESGGGVVQPGRSLRLSCAASGFTFSNAWMHWVRQAPGKGLEWVAQIKAKSNNYATYYAESVKGRFTISRDDSKNSLYLQMNSLKTEDTAVYYCRYVHYGAYYGVDAWGQGTTVTVSS
VL: DIVMTQSPLSLPVTPGEPASISCRSSQSLVHSNRNTYLHWYQQKPGQAPRLLIYKVSNRFYGVPDRFSGSGSGTDFTLKISRVEAEDVGVYYCGQGTQVPYTFGQGTKLEIK
notes: one-arm IgG as m2
B13: GLS3000 T31I (antibody, name in Kabat numbering, V domains shown)
VH: QVQLVESGGGVVQPGRSLRLSCAASGFTFSNAWMHWVRQAPGKGLEWVAQIKAKSNNYATYYAESVKGRFTISRDDSKNSLYLQMNSLKTEDTAVYYCRYVHYGAYYGVDAWGQGTTVTVSS
VL: DIVMTQSPLSLPVTPGEPASISCRSSQSLVHSNRNIYLHWYQQKPGQAPRLLIYKVSNRFSGVPDRFSGSGSGTDFTLKISRVEAEDVGVYYCGQGTQVPYTFGQGTKLEIK
notes: one-arm IgG as m2
B14: GLS3000 S56W (antibody, name in Kabat numbering, V domains shown)
VH: QVQLVESGGGVVQPGRSLRLSCAASGFTFSNAWMHWVRQAPGKGLEWVAQIKAKSNNYATYYAESVKGRFTISRDDSKNSLYLQMNSLKTEDTAVYYCRYVHYGAYYGVDAWGQGTTVTVSS
VL: DIVMTQSPLSLPVTPGEPASISCRSSQSLVHSNRNTYLHWYQQKPGQAPRLLIYKVSNRFWGVPDRFSGSGSGTDFTLKISRVEAEDVGVYYCGQGTQVPYTFGQGTKLEIK
notes: one-arm IgG as m2
B15: GLS3000 S56V (antibody, name in Kabat numbering, V domains shown)
VH: QVQLVESGGGVVQPGRSLRLSCAASGFTFSNAWMHWVRQAPGKGLEWVAQIKAKSNNYATYYAESVKGRFTISRDDSKNSLYLQMNSLKTEDTAVYYCRYVHYGAYYGVDAWGQGTTVTVSS
VL: DIVMTQSPLSLPVTPGEPASISCRSSQSLVHSNRNTYLHWYQQKPGQAPRLLIYKVSNRFVGVPDRFSGSGSGTDFTLKISRVEAEDVGVYYCGQGTQVPYTFGQGTKLEIK
notes: one-arm IgG as m2

T1 sequence (P07766 23-126): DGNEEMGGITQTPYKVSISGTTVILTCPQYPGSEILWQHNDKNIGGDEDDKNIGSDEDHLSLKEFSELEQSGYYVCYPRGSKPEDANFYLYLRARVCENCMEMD

The assay concerns the target T1, CD3 epsilon homodimer protein (UniProt P07766 23-126).
T1 construct: also called CD3 (CD3 epsilon)
Description: SPR Biacore T200, CD3e homodimer on chip, vs unaltered GLS3000 antibody. A general note: In SPR one partner is held on a chip, and binding of the other changes the refractive index at the surface.
For B1, the “ratio of amounts bound (Z=Y/X)” value was 0.92.

With B2, the “ratio of amounts bound (Z=Y/X)” value was found to be 0.49.

Consider B3, for which the “ratio of amounts bound (Z=Y/X)” value is 1.04.

On to B4, for which the “ratio of amounts bound (Z=Y/X)” value came to 0.97.

As to B5, the “ratio of amounts bound (Z=Y/X)” value is 0.31.

Turning to B6, the “ratio of amounts bound (Z=Y/X)” value stood at 0.32.

Turning to B7, the “ratio of amounts bound (Z=Y/X)” value was 0.63.

B8: the “ratio of amounts bound (Z=Y/X)” value came to 1.36.

Turning to B9, the “ratio of amounts bound (Z=Y/X)” value came out at 0.95.

B10: the “ratio of amounts bound (Z=Y/X)” value turned out to be 0.23.

With B11, the “ratio of amounts bound (Z=Y/X)” value is 1.04.

Consider B12, for which the “ratio of amounts bound (Z=Y/X)” value amounted to 1.46.

Consider B13, for which the “ratio of amounts bound (Z=Y/X)” value is 0.97.

B14: the “ratio of amounts bound (Z=Y/X)” value was determined as 1.38.

With B15, the “ratio of amounts bound (Z=Y/X)” value amounted to 0.95.
